Measurements taken from PMC4914982.
One block for each substance: values may come before it.

Columns and labels:
Assay in all cases: SEC + native gel or EMSA; SEC: Superdex S200 10/300 GL, PBS pH 7.4, approximately 500 ul of 1 mg/ml protein injected, UV 280 nm; semi-native PAGE: 12% SDS-PAGE, Laemmli buffer with 0.2% SDS and 12.5 mM EDTA, no beta-mercaptoethanol, samples not heated; monomer to dimer
sfGFP-N149Y = molecular target: sfGFP-N149Y
sfGFP-N149Y/Q204H = molecular target: sfGFP-N149Y/Q204H
sfGFP-N149Y/Q204H/I167T = molecular target: sfGFP-N149Y/Q204H/I167T
[1] = molecular target: sfGFP-N149Y/Q204H/I167T/I188V
sfGFP-N149Y/Q204H/I188V = molecular target: sfGFP-N149Y/Q204H/I188V
sfGFP-Q204H = molecular target: sfGFP-Q204H

- stoichiometry N (sfGFP-N149Y): 2
Substance: sfGFP-N149Y

- stoichiometry N (sfGFP-N149Y/Q204H): 2
Substance: sfGFP-N149Y/Q204H

- stoichiometry N (sfGFP-N149Y/Q204H/I167T): 2
Substance: sfGFP-N149Y/Q204H/I167T

- stoichiometry N [1]: 2
Substance: sfGFP-N149Y/Q204H/I167T/I188V

- stoichiometry N (sfGFP-N149Y/Q204H/I188V): 2
Substance: sfGFP-N149Y/Q204H/I188V

- stoichiometry N (sfGFP-Q204H): 2
Substance: sfGFP-Q204H
